Laboratory results reported in US11278600B2, “Human alpha-galactosidase variants” (Codexis, Inc., priority 2014, dated 2022).

Columns and labels:
Type in all cases: biochemical
[1] = HTP-analysis of supernatants pretreated with base (MUGal hydrolysis); settings: challenge at pH 8.2; activity of the variant/activity of Rd3BB (SEQ ID NO: 13); yeast culture supernatant
How it was run: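 GLA variants secreted from yeast INVSc1; culture supernatants pre-incubated with McIlvaine buffer pH 7.0–8.2 or 200 mM bicarbonate pH 9.1–9.7 at 37° C. for 1–18 h. Residual activity: MUGal (4 mM stock) hydrolysis at pH 4.3–4.8, 37° C., 30–180 min, carbonate quench; fluorescence Ex 355/Em 448 nm.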

[2] = HTP-analysis of yeast culture supernatants, no challenge (MUGal hydrolysis); settings: activity of the variant/activity of Rd3BB (SEQ ID NO: 13), yeast culture supernatant
How it was run: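 Activity read as 4-methylumbelliferyl α-D-galactopyranoside hydrolysis: fluorescence (355/448 nm) after sodium carbonate stop, following 30-180 min at 37° C with 2 mM MUGal stock at pH 4.6–4.8. Enzyme source is unchallenged culture supernatant of INVSc1 yeast expressing GLA variants, grown 66-84 h at 30° C.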

[3] = HTP-analysis of supernatants pretreated with acid (MUGal hydrolysis); settings: challenge at pH 4.0; activity of the variant/activity of Rd3BB (SEQ ID NO: 13); yeast culture supernatant
How it was run: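 Yeast INVSc1 supernatant, GLA variants; acid challenge: McIlvaine pH 3.3-4.3, 37° C., 1-3 h. Assay: MUGal in McIlvaine pH 4.8 plus citrate pH 4.3, 37° C., 30-180 min, Na2CO3 stop, Ex 355/Em 448 nm.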

[4] = HTP-analysis of supernatants pretreated with bovine serum (MUGal hydrolysis); settings: activity of the variant/activity of Rd3BB (SEQ ID NO: 13), yeast culture supernatant
How it was run: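 Yeast INVSc1 culture supernatants containing secreted GLA variants were mixed with bovine serum (20:80) and held 1 h at 37° C. Serum-treated samples then reacted with MUGal (4 mM stock) in citrate/McIlvaine buffer (pH 4.3/4.8) for 180 min at 37° C., were quenched with sodium carbonate, and read by fluorescence (Ex 355, Em 448 nm).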

Molecule	Relative Activity of GLA Variants After Challenge at pH 8.2 [1]	Relative Activity of GLA Variants After No Challenge (NC) [2]	Relative Activity of GLA Variants After Challenge at pH 4.0 [3]	Relative Activity of GLA Variants After Challenge with Serum [4]
347 (protein, Synthetic Polypeptide sequence of Variant No. 347 of mature Human GLA) LDNGLARTPTMGWLHWERFMCNLDCQEEPDSCISEKLFMEMAERMVSEGWKDAGYEYLCIDDCWMAPQRDSEGRLQADPQRFPHGIRQLANYVHSIGLKLGIYADVGNKTCAGFPGSFGYYDIDAQTFADWGVDLLKFDGCYCDSLENLADGYKHMSLALNRTGRSIVYSCEWPLYMWPFQKPNYTEIRQYCNHWRNFADIDDSWASIKSILDWTSFNQERIVDVAGPGGWNDPDMLVIGNFGLSWNQQVTQMALWAIMAAPLFMSNDLRHISPQAKALLQDKDVIAINQDPLGKQGYQLRQGDNFEVWERPLSGLAWAVAIINRQEIGGPRSYTIPVASLGKGVACNPACFITQLLPVKRKLGFYNWSSRLKSHINPTGTVLLQLENTMQMSLKDLL	− (− = <0.5 relative activity to Rd3BB (SEQ ID NO: 13))	− (− = <0.5 relative activity to Rd3BB (SEQ ID NO: 13))	− (− = <0.5 relative activity to Rd3BB (SEQ ID NO: 13))	− (− = <0.5 relative activity to Rd3BB (SEQ ID NO: 13))
349 (protein, Synthetic Polypeptide sequence of Variant No. 349 of mature Human GLA) LDNGLARTPTMGWLHWERFMCNLDCQEEPDSCISEKLFMEMAERMVSEGWKDAGYEYLCIDDCWMAPQRDSEGRLQADPQRFPHGIRQLANYVHSKGLKFGIYADVGNKTCAGFPGSFGYYDIDAQTFADWGVDLLKFDGCYCDSLENLADGYKHMSLALNRTGRSIVYSCEWPLYMWPFQKPNYTEIRQYCNHWRNFADIDDSWASVKSILDWTSFNQETIVDVAGPGGWNDPDMLVIGNFGLSWDQQVTQMALWAIMAAPLFMSNDLRHISPQAKALLQDKDVIAINQDPLGKQGYQLRQGDNFEVWERPLSGLAWAVAIINRQEIGGPRSYTIAVASLGKGVACNPACFITQLLPVKRKLGLYNWTSRLKSHINPTGTVLLQLENTMQMSLKDLL	++ (++ = >1.5 to 2.5 relative activity over Rd3BB (SEQ ID NO: 13))	+ (+ = 0.5 to 1.5 relative activity over Rd3BB (SEQ ID NO: 13))	+ (+ = 0.5 to 1.5 relative activity over Rd3BB (SEQ ID NO: 13))	+ (+ = 0.5 to 1.5 relative activity over Rd3BB (SEQ ID NO: 13))
348 (protein, Synthetic Polypeptide sequence of Variant No. 348 of mature Human GLA) LDNGLARTPTMGWLHWERFMCNLDCQEEPDSCISEKLFMEMAERMVSEGWKDAGYEYLCIDDCWMAPQRDSEGRLQADPQRFPHGIRQLANYVHSKGLKFGIYADVGNKTCAGFPGSFGYYDIDAQTFADWGVDLLKFDGCYCDSLENLADGYKHMSLALNRTGRSIVYSCEWPLYMWPFQKPNYTEIRQYCNHWRNFADIDDSWASVKSILDWTSFNQEKIVDVAGPGGWNDPDMLVIGNFGLSWNQQVTQMALWAIMAAPLFMSNDLRHISPQAKALLQDKDVIAINQDPLGKQGYQLRQGDNFEVWERPLSGLAWAVAIINRQEIGGPRSYTIAVASLGGGVACNPACFITQLLPVKRKLGLYNWTSRLKSHINPTGTVLLQLENTMQMSLKDLL	+ (+ = 0.5 to 1.5 relative activity over Rd3BB (SEQ ID NO: 13))	+ (+ = 0.5 to 1.5 relative activity over Rd3BB (SEQ ID NO: 13))	+ (+ = 0.5 to 1.5 relative activity over Rd3BB (SEQ ID NO: 13))	+ (+ = 0.5 to 1.5 relative activity over Rd3BB (SEQ ID NO: 13))
